Patent publication US20140242093, “METHODS AND COMPOSITIONS FOR MODULATING THE INNATE IMMUNE RESPONSE AND/OR MYOGENESIS IN A MAMMALIAN SUBJECT” (FRED HUTCHINSON CANCER RESEARCH CENTER, published 2014)

Target: DUX4-fl (Homo sapiens, UniProt Q9UBX2 SEQ:1-424)
Experiment: EMSA; cold mutant does not compete
Details: tags: pCS2-DUX4-fl, TNT SP6 wheat germ
Protocol: EMSA was performed with ³²P-labeled 31-bp oligonucleotides from endogenous genomic sequences containing the putative DUX4 binding site as probes (sequences below; only forward shown). Radiolabeled probes were incubated with in vitro translated protein generated from pCS2-DUX4-fl or pCS2-DUX4-s² vectors using the TNT SP6 Coupled Wheat Germ Extract System (Promega) according to manufacturer's instructions. To obtain supershift of protein-DNA complexes, 0.1 μg of E14-3 anti-DUX4 rabbit monoclonal antibody was added to the mixtures. For competition experiments, excess unlabeled probes of either wild-type or mutant sequences were included in the binding reaction. The gels were prepared and run as previously described (Knoepfler et al., 1999).
Electrophoretic mobility shift assay (EMSA) confirmed that DUX4-fl binds the core motifs present in both MaLR-associated and non-repeat associated sites: TRIM48 oligos—the TAATTTAATCA (SEQ ID NO:169) core sequence found near the TRIM48 gene, CSF1R oligos—the TAATTGAATCA (SEQ ID NO:171) core sequence found within the LTR of a THE1B retroelement near the CSF1R gene, and THE1D oligos—the TAATCCAATCA (SEQ ID NO:172) core sequence found within the LTR of the THE1D retroelement. […] Because the DUX4-s alternative splice form retains the N-terminal DNA-binding homeodomains, the inventors hypothesized that it would bind to the same sites as DUX4-fl. EMSA confirmed that DUX4-s specifically binds the same core binding site as DUX4-fl in vitro.

Chain of DUX4-fl (Q9UBX2 whole entry): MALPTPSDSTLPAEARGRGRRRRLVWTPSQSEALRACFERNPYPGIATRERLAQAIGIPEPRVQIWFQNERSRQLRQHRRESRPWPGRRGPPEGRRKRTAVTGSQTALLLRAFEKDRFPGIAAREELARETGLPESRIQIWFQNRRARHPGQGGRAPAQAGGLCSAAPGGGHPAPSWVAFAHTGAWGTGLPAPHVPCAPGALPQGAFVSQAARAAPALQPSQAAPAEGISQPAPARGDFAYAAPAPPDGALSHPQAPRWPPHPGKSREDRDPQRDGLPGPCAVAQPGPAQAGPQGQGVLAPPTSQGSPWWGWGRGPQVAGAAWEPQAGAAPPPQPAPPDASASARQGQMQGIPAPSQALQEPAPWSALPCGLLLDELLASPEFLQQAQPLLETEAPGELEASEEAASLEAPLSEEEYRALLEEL

| Binder | binding result |
| --- | --- |
| CSF1Rmut (dsDNA) DNA 1: CCAGGTGGAGATACTTGTATGATGGGGGCAG DNA 2: CTGCCCCCATCATACAAGTATCTCCACCTGG | no binding |
| THE1Dmut (dsDNA) DNA 1: CCTGTGGGAGGTACTCCTATGATGGAGGCAG DNA 2: CTGCCTCCATCATAGGAGTACCTCCCACAGG | no binding |
| TRIM48mut (dsDNA) DNA 1: AGGAGTGATGATACTTTTATGAGCCGTGCAA DNA 2: TTGCACGGCTCATAAAAGTATCATCACTCCT | no binding |
